One molecule from publication PMC6021111, “Murine leukemia virus p12 tethers the capsid-containing pre-integration complex to chromatin by binding directly to host nucleosomes in mitosis” (PLoS Pathogens, 2018) can be followed below.

Test [1] deals with double- and single-stranded calf thymus DNA. The test can be described thus: Pull-down with DNA-coated cellulose beads. Type of test: binding. Conditions: 293T lysates. As to the method: GST-p12 and IN-HA were expressed in 293T cells from pCAGGS/GST and pCMV4/HA-derived plasmids respectively, by transient transfection using Turbofect (Thermo Fisher Scientific). Approximately 24 h after transfection, cells were changed into fresh media and incubated overnight at 37°C. Cells were then washed and lysed in 20 mM Tris-HCl pH 8.0, 300 mM NaCl, 1 mM EDTA, 10% Glycerol, 1% Triton X-100, protease inhibitors. Lysis was facilitated by passing the lysates through a 19-gauge needle x7 and sonication, x7 pulses, 30 s ON and 30 s OFF, in an ice bath (Decon FS100). After sonication, the lysates were supplemented with 4 mM MgCl2 and 1 mM DTT, and incubated for a further 1 h at 4°C. The lysates were then clarified by centrifugation and diluted 1:3 in 20 mM Tris-HCl pH 8.0, 10% glycerol, 4 mM MgCl2 and 1 mM DTT. The lysates were then normalised based on total protein concentration using the Bradford protein assay (Bio-Rad). 0.7 ml aliquots of lysates at 0.7 mg/ml were incubated with calf thymus DNA-coated cellulose beads (100 μl/reaction of a 50% slurry) (Sigma) for 1 h at 4°C with end-over-end rotation. The beads were then washed three times in 20 mM Tris pH 8.0, 100 mM NaCl, 0.33 mM EDTA, 10% Glycerol, 0.33% Triton X-100, 4 mM MgCl2 and 1 mM DTT and re-suspended in 50 μl of x2 protein loading dye for SDS-PAGE and immunoblotting.

Test [2] can be described thus: Biochemical fractionation of 293T cells expressing GST-p12. Format: cell-based. Conditions: cycling cells, ~40 h expression, immunoblot of S2, S3, P3. As to the method: GST-p12 proteins were expressed in 293T cells from pCAGGS/GST-derived plasmids by transient transfection using Turbofect (Thermo Fisher Scientific). Cell media was changed 24 h after transfection, and cells were incubated overnight at 37°C, before being harvested, counted, pelleted (500 g, 5 min) and snap frozen in dry ice/ethanol. Biochemical fractionation of cells was performed essentially as described in [14]. Briefly, cell pellets thawed on ice were resuspended at 2.5× 10^7 cells/ml in buffer 1 (10 mm HEPES pH 7.9, 10 mm KCl, 1.5 mm MgCl2, 10% glycerol, 0.34 m sucrose, 1 mm DTT and protease inhibitors) and then supplemented with 0.1% Triton-X-100. Cells were incubated on ice for 5 min and nuclei (P1) were collected by centrifugation at 1300 g, 5 min, 4°C. The supernatant (S1) was clarified by further centrifugation (5 min, 20 000 × g, 4°C) to collect the cytosolic supernatant fraction (S2). The P1 nuclei were washed once with buffer 1 and then lysed for 30 min in buffer 2 (3 mM EDTA, 0.2 mM EGTA and 1 mM DTT, protease inhibitors). The chromatin (P3) and soluble nuclear (S3) fractions were separated by centrifugation (5 min, 1700 g, 4°C). The S2, S3 and P3 fractions were analysed by immunoblotting.

The subject of test [3] is GST-p12 phosphorylation in 293T cells. Put plainly: GST-p12 phosphorylation by ProQ diamond / Sypro ruby staining. Format: cell-based. Particulars: PQ/SR ratio, 3 technical replicates; "at least". As to the method:
Firstly, GST-p12 pulled-down from mitotic cell lysates was analysed by SDS-PAGE followed by sequential staining with two fluorescent dyes, ProQ diamond (PQ) and Sypro Ruby (SR). PQ is a small molecule fluorophore that binds with high-specificity to phosphorylated proteins. SR binds all proteins and is useful as a total protein indicator. The ratio of PQ and SR dye signals provides a measure of the phosphorylation level with respect to the total amount protein. Viral p12 is known to be mainly phosphorylated at serine 61 within the CTD [19, 25]. We therefore compared the relative phosphorylation levels of GST-p12_WT with a S61A mutant. Compared to p12_S61A, p12_WT was at least 3-fold more phosphorylated (Fig 3E, lanes 2 and 3).
GST-p12 proteins were expressed in 293T cells from pCAGGS/GST-derived plasmids by transient transfection using Turbofect (Thermo Fisher Scientific). Approximately 24 h after transfection, cells were changed into fresh media containing either 400 ng/ml nocodazole (Sigma) or 2 μg/ml aphidicolin (Sigma) and incubated overnight at 37°C. The synchronisation of the cell cultures after drug treatment was assessed by propidium iodide staining and cell cycle phase analysis by flow cytometry. […] ProQ diamond and Sypro ruby staining (Thermo Fisher Scientific) of gels was visualised and quantified on a ChemiDoc imaging system (Bio-Rad).

B1: GST-p12_WT: N-terminally GST-tagged Mo-MLV p12 (protein)
chain: PALTPSLGAKPKPQVLSDSGGPLIDLLTEDPPPYRDPRPPPSDRDGNGGEATPAGEAPDPSPMASRLRGRREPPVADSTTSQAF
modifications: left off: GST, N-terminal, kept
notes: N-terminally GST-tagged Mo-MLV p12
Take B1: the “binding to DNA-coated beads” value in test [1] is recorded as “no binding to DNA was observed”. For the same molecule, the “sub-cellular distribution by fractionation” value in test [2] is “mainly cytoplasmic”. Also, the “phosphorylation at mitosis in comparison to interphase” value in test [3] is listed as 3–4 fold.
